Data taken from publication PMC4493910, “Cryo-EM structure of the bacteriophage T4 portal protein assembly at near-atomic resolution” (Nature Communications, 2015).

Assays:
[1] = target: bacteriophage T4 portal protein gp20, construct gp20-N74 (residues 74–524) (bacteriophage T4) (UniProt P13334); assay: cryo-EM structure; single particles of gp20-N74 after two gel filtrations, 1 mg/ml in 20 mM Tris-HCl pH 7.8, 400 mM NaCl, 5 mM EDTA, 0.3% octyl-β-glucoside; 12-fold symmetry imposed, 3.6 Å
[2] = target: bacteriophage T4 portal protein gp20, construct gp20-N74 (residues 74–524) (bacteriophage T4) (UniProt P13334); assay: cryo-EM 2D classification of particles; oligomeric states counted in cryo-EM data of purified portals; gp20-N74 after a single gel filtration (narrow 500 μl fraction)
[3] = target: gp20 mutant in which the tunnel loop (residues 377–388) had been deleted (bacteriophage T4); assay: as above
[4] = target: bacteriophage T4 major capsid protein gp23 (bacteriophage T4); assay: cryo-EM structure; purified emptied prolate heads of a gp13 amber mutant in 50 mM Tris pH 7.5, 1 mM MgCl2, 100 mM NaCl; fivefold symmetry, 10 Å; gp20 structure and a gp23 model fitted into the map
[5] = target: the molecule itself; assay: as above

In the case of “bacteriophage T4 portal protein gp20, construct gp20-N74 (residues 74–524) (from UniProt P13334 74-524) (domain or fragment)”, the percent of particles that are 12-mers [1] is reported as 95%, the percent of particles that are 13-mers [1] is reported as 5% and the stoichiometry N [1] is reported as 12. It also gave a percent of particles that are 11-mers [2] of 0.1%, a percent of particles that are 12-mers [2] of 90% and a percent of particles that are 13-mers [2] of 9.9%.

“gp20 mutant in which the tunnel loop (residues 377–388) had been deleted (domain or fragment)” gave a percent of particles that are 11-mers [3] of 28% and a percent of particles that are 13-mers [3] of 4%.

In the case of “bacteriophage T4 major capsid protein gp23 (natural protein)”, the stoichiometry N [4] is reported as 6.

B1: bacteriophage T4 vertex protein gp24 (natural protein, UniProt P19896 11-427, looked up)
chain: STTTNSNSIGRPNLVALTRATTKLIYSDIVATQRTNQPVAAFYGIKYLNPDNEFTFKTGATYAGEAGYVDREQITELTEESKLTLNKGDLFKYNNIVYKVLEDTPFATIEESDLELALQIAIVLLKVRLFSDAASTSKFESSDSEIADARFQINKWQTAVKSRKLKTGITVELAQDLEANGFDAPNFLEDLLATEMADEINKDILQSLITVSKRYKVTGITDSGFIDLSYASAPEAGRSLYRMVCEMVSHIQKESTYTATFCVASARAAAILAASGWLKHKPEDDKYLSQNAYGFLANGLPLYCDTNSPLDYVIVGVVENIGEKEIVGSIFYAPYTEGLDLDDPEHVGAFKVVVDPESLQPSIGLLVRYALSANPYTVAKDEKEARIIDGGDMDKMAGRSDLSVLLGVKLPKIIIDE
notes: capsid vertex protein gp24 of bacteriophage T4, as present in fully expanded heads; source: emptied prolate heads of a T4 gp13 amber mutant, purified
B1 was tested, and the “stoichiometry N” value [5] was 5.
